Biological target: Synechococcus sp. PCC 7002 Type 2 β‐McdB (Synechococcus sp. PCC 7002)
Assay: SEC-MALS

“Synechococcus sp. PCC 7002 Type 2 β‐McdB (natural protein)” gave a stoichiometry N of 2.

Source: paper PMC8359340
